Results on four molecules are retold here after paper PMC8079656, “The msaABCR Operon Regulates Persister Formation by Modulating Energy Metabolism in Staphylococcus aureus”.

In data set [1] the target is T1, MsaB-His (Staphylococcus aureus USA300 LAC, UniProt Q2FH36 1-66).
T1 sequence: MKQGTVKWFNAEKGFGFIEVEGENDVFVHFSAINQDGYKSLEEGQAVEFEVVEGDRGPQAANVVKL
Nature of the data set: EMSA; 5 mM MgCl2, poly(dI-dC). The following applies: protein: recombinant, tags: 6xHis, blunt.

Data set [2] has as its target T1, MsaB-His. Nature of the data set: EMSA; 5 mM MgCl2, poly(dI-dC); shift reversed by 100-fold unlabeled probe. The note with it: protein: recombinant; tags: 6xHis; label: biotin (5'); blunt. (In general: A gel shift assay detects complexes by their altered migration in electrophoresis.)
The target of data set [3] is T1, MsaB-His. Nature of the data set: EMSA; 5 mM MgCl2, poly(dI-dC); shift reduced by 100-fold unlabeled probe. The following applies: protein: recombinant; tags: 6xHis; label: biotin (5').

B1: gudB promoter probe (gudB_EMSA) (dsDNA)
DNA 1: GGAAATTCAATATGTTTGAAAGCGAATCATTAGGTAAAGAAGAGGCGAAAAGGATC
DNA 2: GATCCTTTTCGCCTCTTCTTTACCTAATGATTCGCTTTCAAACATATTGAATTTCC
As to B1, the binding result in the data set with MsaB-His [1] (label: biotin (5')) is listed as “no binding”.

B2: ccpE promoter probe (ccpE_EMSA) (dsDNA)
DNA 1: GTTAGTAATGAACTCATGAATGCTTGTGCCATGAAAGTTCAATAATTGAATAATTTATGGGG
DNA 2: CCCCATAAATTATTCAATTATTGAACTTTCATGGCACAAGCATTCATGAGTTCATTACTAAC
On to B2, for which, in the data set with MsaB-His [2], the binding result is given as “binds”.

B3: ndh2 ssDNA probe (ndh2_EMSA) (ssDNA)
DNA: GTCTTTTTTGTGAACATCACAGGTTTTTACATAATTTAAAAGACTTAAATAACAAAATGATGATAAACTAGTATA
As for B3, the binding result in the data set with MsaB-His [3] is “binds”.

B4: ndh2 dsDNA, same region (dsDNA)
DNA 1: B3 DNA
DNA 2: TATACTAGTTTATCATCATTTTGTTATTTAAGTCTTTTAAATTATGTAAAAACCTGTGATGTTCACAAAAAAGAC
For B4, the binding result with MsaB-His [1] is given as “no binding”.
